Assay results as given in patent publication US20040229241A1, “Cloned mammalian polyamine oxidase” (priority 2001, published 2004).

B1: purified recombinant human PAOh1/SMO (Homo sapiens) (protein)
chain: MQSCESSGDSADDPLSRGLRRRGQPRVVVIGAGLAGLAAAKALLEQGFTDVTVLEASSHIGGRVQSVKLGHATFELGATWIHGSHGNPIYHLAEANGLLEETTDGERSVGRISLYSKNGVACYLTNHGRRIPKDVVEEFSDLYNEVYNLTQEFFRHDKPVNAESQNSVGVFTREEVRNRIRNDPDDPEATKRLKLAMIQQYLKVESCESSSHSMDEVSLSAFGEWTEIPGAHHIIPSGFMRVVELLAEGIPAHVIQLGKPVRCIHWDQASARPRGPEIEPRGEGDHNHDTGEGGQGGEEPRGGRWDEDEQWSVVVECEDCELIPADHVIVTVSLGVLKRQYTSFFRPGLPTEKVAAIHRLGIGTTDKIFLEFEEPFWGPECNSLQFVWEDEAESHTLTYPPELWYRKICGFDVLYPPERYGHVLSGWICGEEALVMEKCDDEAVAEICTEMLRQFTGNPNIPKPRRILRSAWGSNPYFRGSYSYTQVGSSGADVEKLAKPLPYTESSKTAPMQVLFSGEATHRKYYSTTHGALLSGQREAARLIEMYRDLFQQGT
B2: human PAOh1 (Homo sapiens) (protein)
chain: B1 chain
notes: made in house; host or cells: TnT-coupled wheat germ extract (Promega), template pPAOh1 (pcDNA3.1)

Experiments:
[1] = substrate: NCCCNCCCCNCCCN; assay: cells, lysate or membranes named; conditions: other: named compound as substrate, Lineweaver-Burk; 37.0 °C
[2] = substrate: NCCCNCCCCNCCCN; assay: PAO activity of in vitro TnT (wheat germ) produced PAOh1, fluorescent H2O2 assay; format: biochemical, human; conditions: other: Lineweaver/Burke transformation; pH 9.0; 37.0 °C
Method: In Vitro Transcription and Translation. In vitro transcription and translation reactions were performed with the TnT-coupled wheat germ extract system. Parallel reactions were prepared by adding an unlabeled amino acid mixture to one reaction and a [^35S]methionine containing amino acid mixture to the other, according to the supplied protocol. Vector pcDNA3.1 and pPAOh1 were linearized by SalI restriction and served as the templates. The labeled translation reactions products were separated by 10% SDS-PAGE, and radioactivity on the labeled PAO band was determined by Phosphor image analysis using Image Quant software (Molecular Dynamics, Sunnyvale, Calif.).
Determination of PAO Enzyme Activity. The cultured H157 cells with or without treatment of 10 μM N^1, N″-bis(ethyl)norspermine (BENSpm) were homogenized with a Dounce tissue homogenizer in ice-cold 0.083 M sodium borate buffer (pH 9.0). […] The enzyme activity was stopped by the addition of 2.0 ml of 0.1 M NaOH solution. The fluorescence intensity was measured with excitation at 323 nm and emission at 426 nm. […] Protein content of the cellular homogenate was determined using the Bio-Rad protein assay kit (Bio-Rad). […] For determination of PAO activity in the product of the unlabeled TnT reaction, 10 μl of TnT reaction were used in the place of the homogenate. […]

Row | Protein | Km [1] [µM] | Vmax [1] [μmol/mg protein/min] | Km [2] [µM]
1 | B1 | 1.63 | 7.72 | 
2 | B2 |  |  | 18
